T1: HD21 (huntingtin exon 1 protein with 21 polyQ repeats after cleavage of the GST tag; aggregation reaction) (human), P42858
T1 chain: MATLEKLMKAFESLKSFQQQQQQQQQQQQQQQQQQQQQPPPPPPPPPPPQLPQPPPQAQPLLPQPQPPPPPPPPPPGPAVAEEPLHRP


Tests used:
[1] = molecular target: T1, HD21 (huntingtin exon 1 protein with 21 …); test: ELISA; conditions: chains VH:VL; remark: other sources report otherwise
[2] = molecular target: all four species (aggregated HD49, aggregated HD21, soluble GST-HD49 and GST-HD21); test: direct ELISA, antigen coated at 5 ug/ml

Row | Binder | EC50 [1] [nM] | EC50 [2] [nM]
1 | NI-302.4A6 (protein) chain 1: EVQLVESGGGLVQPGGSLRLSCAASGFTFSAYAMSWVRQAPGKGLEWVSTISGSGGSTYYADSVKGRFSISRDNSKNTLYLQMNSLRAEDTAVYFCAKVTTELYGANSYYYYMDVWGKGTTVTVSS chain 2: EIVLTQSPGTLSLSPGERATLSCRASQSVVSRYLAWYQQKPGQAPRLLIYGASSRATGIPDRFSGSGSGTDFTLTISRLEPEDFAMYYCQLYGNSQTFGQGTKVEIK | 3 | –
2 | NI-302.8M1 (protein) chain 1: EVQLVQSGAEVKKPGASVKVSCKASGYTFTIYYMHWVRQAPGQGLEWMGGISPSGAHTMYAQNFQGRVTVTRDTSTSTVYMELSSLRSEDTAVYYCARGSTVTNYRPFDYWGQGTLVTVSS chain 2: DIQMTQSPSSLSASVGDRVTITCRASQDISNYLAWYQQKPGKVPKLLIFAASTLQSGVPSRFGGSGSGTDFTLTISSLQPEDVATYYCQNYNSGPPPFGPGTKVDIK | 0.002 | –
3 | NI-302.12H2 (protein) chain 1: EVQLVQSGGGLVQPGGSLRLSCEASGFTFSNYAMGWVRQAPGKGLEWVSVISGTGGSTYYADSVKGRFTISRDNSMNTLYLQMNSPRADDTAVYYCAKDLRKISGPLYYYGMDVWGQGTTVTVSS chain 2: EIVLTQSPGTLSLSPGERATLSCRASQSVSSGYLAWYQQKPGQAPRLLIYGASTRATGIPDRFSGSGSGTDFTLTISRLEPEDFAVYYCQHYGASSYTFGQGTKLEIK | 0.05 | –
4 | NI-302.15F9 (antibody, human IgG1, V domains shown) VH: EVQLVESGGGLVTPGGSLRLSCEASGFLFKNSSMNWVRQTPGKGLEWVSSIDTSATNYKYYADSVKGRFTISRDDATNSLYLQMNSLRADDTATYYCARGYYTPRDFDYWGQGTLVTVSS VL: DVVMTQSPQTLSVSLGQAASISCRSSQSLLYRDNNTYLNWFHQRPGQSPRRLIYRASDRDSGVPDRFSGGGSGTDFTLKISGVEAEDVGTYYCMQGTHWPRTFGQGTKVEIK | – | 5 to 35
